The values that follow come from IntAct's records for PubMed 16456538.

The labels stand for the following.
B1: Uncharacterized protein TRE1 (Saccharomyces cerevisiae), Q08919 (parent)
chain: MVNTRGYTTLPNVEEPANNSQDELNSQDFEQAIGMPSEPPVYVEEMGMEEPQAPEAFSEKVQRFRMCFENNVVIPVKKNVVDPLAQMISLASEKFDLFLSKIGNVMVMRRIFYIMMMSIIAALIIASDRLPNGKARGSNGSFSDHDLLLQYARKSIDLSKIERDLEYISSMPHMSGTSGDAAIRHYIKESFDKNGIRLAGEEEFMAYSNYPGNVSLRVYSKDDTEGFDIPLNEENFNPMSHNGQLNNIPVIYANKASLDDMASMQDQGLLNGDFILLVHYGDYVFQQMLTAQEYGAKAIIFISEPYQDNKDVIQMKSVALPQYGTGDALTPEWEGSIRDPIDATEAKCLPKIPSIPISANQGDKILAILSDTGVKFSNNLFSGSLNDCRLDLLVQTAIRERHPVHDIVGKIEGSEQAGRAIVIAAPRNSASYGTMYPSFGTVVLLSLIQLYQEMVYKFDWKPLRNIYFISFGGSEFNEAGATELMEKRTEALKSEIYTIIDVGQIGIWDDSNNLEIQCHPLLVDLFQKNMTSRKFNVKVDNVHQFGDWTPYLAQGIPVAIISSPGVMNREHPIYTVEDKFDFIKDKLRDKKKGEVLSEIMLYLVEKSLELIDDPFIPFSISNYVDFLSTTLKDLQKECPDTVNFDEVFLGTTLWENTKLQFEKWKSEWTELMYGAGTYIEPTIIAINRWSWNYLLSLIGVTQCLEEGLMDRTFYKNVIFGPKLWVDKGDPLRSWTFPEIRDTIAIKDWSSVQVQANTLGTILQNTARYFLENKNLHGINTNEF

Variants of B1 are the subject of one assay. Conditions: with rsp5_yeast RSP5, P39940.
Sequence of rsp5_yeast RSP5, P39940 (P39940 whole entry): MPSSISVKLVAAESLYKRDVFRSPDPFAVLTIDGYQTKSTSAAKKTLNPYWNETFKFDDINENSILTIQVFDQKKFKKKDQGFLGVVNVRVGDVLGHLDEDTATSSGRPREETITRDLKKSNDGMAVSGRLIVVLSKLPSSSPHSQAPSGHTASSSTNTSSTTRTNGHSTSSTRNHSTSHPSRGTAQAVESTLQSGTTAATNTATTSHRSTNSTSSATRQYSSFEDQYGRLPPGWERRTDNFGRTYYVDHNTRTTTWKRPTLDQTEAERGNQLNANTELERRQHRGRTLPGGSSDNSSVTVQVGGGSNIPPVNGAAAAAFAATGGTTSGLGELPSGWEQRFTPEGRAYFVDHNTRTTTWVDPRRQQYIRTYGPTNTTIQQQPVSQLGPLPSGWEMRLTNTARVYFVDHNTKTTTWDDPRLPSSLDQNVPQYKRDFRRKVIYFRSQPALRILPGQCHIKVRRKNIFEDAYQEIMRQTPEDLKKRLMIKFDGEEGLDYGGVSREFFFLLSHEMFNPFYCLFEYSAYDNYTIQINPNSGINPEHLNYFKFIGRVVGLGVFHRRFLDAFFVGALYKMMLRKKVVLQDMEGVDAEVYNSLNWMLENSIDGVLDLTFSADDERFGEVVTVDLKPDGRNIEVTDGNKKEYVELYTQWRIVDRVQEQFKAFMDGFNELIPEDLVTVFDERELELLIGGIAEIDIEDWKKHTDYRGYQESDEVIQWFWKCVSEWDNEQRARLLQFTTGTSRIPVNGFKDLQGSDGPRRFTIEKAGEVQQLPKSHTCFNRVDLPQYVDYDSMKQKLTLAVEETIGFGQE
In the case of V41A, the “effect of a mutation on the interaction” value was “disrupting interaction”. Regarding Y42G, the “effect of a mutation on the interaction” value is “disrupting interaction”.

The next assay covers variants of B1. Conditions: with rsp5_yeast RSP5, P39940. The source holds these as a separate data set.
With Y42G, the “effect of a mutation on the interaction” value is listed as “decreasing interaction”.
